Test results: patent publication US20220185844A1, “PEPTIDE-DERIVED THERAPEUTICS TARGETING SET8 FOR THE TREATMENT OF CANCER” (NUVOBIO CORPORATION, priority 2019, published 2022)
Several values for one entry are separate records, joined by “and”; a condition that tells them apart may be missing. Equal entries are not always repeated. Where a SMILES comes first, the peptide text is derived from it. Where no end group is shown, it is not given here. [ ]: non-standard residue; d: D form. Nle = CCCC[C@H](N)C(=O)O; Ahx = NCCCCCC(=O)O

What was measured:
HCT 116 cells [1] = assay: Cell viability assay (Resazurin reduction); type: cell-based
Method: Cell viability was measured using the Resazurin reduction assay which indirectly quantifies living cells through the metabolically active reduction of resazurin to fluorescent resorufin. This assay allows to maintain cells viability and, therefore, to monitor cell growth with time. Exponentially growing HCT 116 cells were seeded into 96-well plates at the density of 2.0×10^4 cells/mL and incubated overnight. The media was replaced with fresh media prior to inhibitor treatment. Cells were treated with 10 μM of inhibitor peptide for 24 hr. All the inhibitors were diluted in the cell culture media (DMEM−/−) from 5 mM stock. All the treated cells were compared to the control (no treatment with equivalent quantity of DMSO) which were considered as 100% viable. One set of wells also prepared with medium only for background subtracting and instrument gain adjustment. The experiments were carried out in triplicate and expressed as mean+−SD. A 10% resazurin solution (0.15 mg/ml stock dissolved in PBS, filter sterilized and stored protected from light at 4° C.) was then added to each well and incubated for 2 hr. The fluorescence was recorded using a multiwell plate reader (Perkin Elmer) at Ex. 560 nm and Em. 610 nm.
Briefly cells were treated with different concentrations of inhibitor for 24 hr ranging from […]. The working dilutions of all the inhibitors were prepared in DMEM−/− media. […]

[2] = test system: H4K20 mono-methylation in HCT 116 cells; assay: Histone H4K20 mono-methylation western blot in treated cells; type: cell-based; settings: HCT 116, 24 hr post dosing, 0-10 nM
Method: The topmost inhibitor, KBL9-TAT, from all the above experiments were tested for histone methylation status in HCT 116 cells. 3×10^6 cells were plated in 10 cm dish and incubated overnight. Cells were then treated with the inhibitors at various concentrations (0, 0.5, 1, 2, 5, 10 nM). Cells (5×10^6 cells/mL), 24 hr of post dosing, were collected in 15 mL falcon tube and centrifuged at 300×g for 10 min. The supernatant was discarded and the cells are washed with iced cold PBS. The cell pellet is flash-frozen in liquid nitrogen and stored at −80° C. Histone isolation is done using standard protocol. To summarize, cells were re-suspended in 1 mL hypotonic lysis buffer (10 mM Tris-HCl pH 8, 1 mM KCl, 1.5 mM MgCl2 and 1 mM DTT) containing protease inhibitor. The cells were transferred to 1.5 mL tube and incubated for 30 min on rotor at 4° C. to promote hypotonic swelling and lysis. The intact nuclei are collected by centrifugation at 10,000×g for 10 min in a cooled tabletop centrifuge. […]
For western blot, of total of […] of histones were separated on 15% SDS-PAGE and transferred overnight at 15V on PVDF membrane. […] Histone proteins were detected by Supersignal™ West Pico PLUS Chemiluminescent substrate (ThermoFisher Scientific) using the Chemidoc XRS+imaging system (BioRad).

HCT 116 cells [3] = assay: Chemosensitivity to doxorubicin (Resazurin reduction); type: cell-based; settings: HCT 116 pre-treated with 2 uM for 24 hrs, dox 16 hrs, normalized to TAT-alone
Method: Inhibitor-induced sensitivity of HCT 116 cells to a chemotherapeutic agent, namely doxorubicin (dox), was measured using the Resazurin reduction assay. This assay allows to maintain cells viability and, therefore, to monitor cell growth with time. Exponentially growing HCT 116 cells were seeded into 96-well plates at the density of 2.0×10^4 cells/mL and incubated overnight. The media was replaced with fresh media prior to inhibitor treatment. Cells were pre-treated with 2 μM of inhibitor peptide for 24 hr. Peptide was diluted in the cell culture media (DMEM−/−) from 5 mM stock. All the treated cells were compared to the control (TAT peptide alone with equivalent quantity of DMSO) which were considered as 100% viable. One set of wells also prepared with medium only for background subtracting and instrument gain adjustment. Following 24 hr peptide treatment, dilutions of dox were added to cells (0, 0.001, 0.002, 0.01, 0.02, 0.1, 0.2, 1, 2 uM) and incubated for 16 hrs. The experiments were carried out in quadruplicate and expressed as mean+−SD. A 10% resazurin solution (0.15 mg/ml stock dissolved in PBS, filter sterilized and stored protected from light at 4° C.) was then added to each well and incubated for 2 hr. The fluorescence was recorded using a multiwell plate reader (Perkin Elmer) at Ex. 560 nm and Em. 610 nm.

HCT 116 cells [4] = assay: Flow cytometry of BrdU incorporation (DNA replication); type: cell-based; settings: HCT 116, 24 hr, 2 and 5 μM
Set8 = molecular target: T1, Set8 (Homo sapiens, UniProt Q9NQR1); assay: In vitro lysine methyltransferase (KMT) activity inhibition assay (Methyltransferase-Glo); type: biochemical
T1 construct: made in house; host or cells: Escherichia coli BL21 (DE3) RP
T1 sequence (Q9NQR1 191-352 isoform Q9NQR1-2): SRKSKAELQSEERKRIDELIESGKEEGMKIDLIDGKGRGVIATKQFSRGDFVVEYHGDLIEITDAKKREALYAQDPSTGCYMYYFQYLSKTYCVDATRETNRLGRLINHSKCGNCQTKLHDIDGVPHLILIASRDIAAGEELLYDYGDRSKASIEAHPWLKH

[5] = molecular target: T2, Recombinant Set8-His6x, pHIS2 Set8(191-352) (Homo sapiens (Human), UniProt Q9NQR1 191-352); assay: cell-based or functional assay
T2 sequence: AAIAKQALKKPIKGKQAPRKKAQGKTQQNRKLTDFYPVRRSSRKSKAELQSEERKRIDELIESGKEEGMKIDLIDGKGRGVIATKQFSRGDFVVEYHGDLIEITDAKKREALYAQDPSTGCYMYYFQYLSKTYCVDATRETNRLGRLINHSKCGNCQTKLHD

[6] = molecular target: T2, Recombinant Set8-His6x, pHIS2 …; assay: fluorescent polarization, fluorescein-labeled peptide with serially diluted recombinant Set8
Method: Recombinant Set8 protein was serially diluted in a 384-well plate, followed by the addition of fluorescein-labeled inhibitor peptide in PBS buffer. The mixtures were incubated in the dark for 30 min prior to fluorescent polarization measurements at room temperature on an EnVision Multilabel Plate Reader (PerkinElmer) with the excitation set at 480 nm and emission at 535 nm. Binding curves were generated by fitting the binding data to a hyperbolic nonlinear regression model using Prism 3.0 (GraphPad software, Inc., San Diego, Calif.), which also produced the corresponding dissociation constants (Kd).

[7] = molecular target: T2, Recombinant Set8-His6x, pHIS2 …; assay: DSF thermal shift, 125 µM peptide with 20 µM Set8, SYPRO Orange; DMSO control 71.5 ± 1.1
Method: Thermal unfolding of target protein was monitored with inhibitor peptide using DSF. Optimal conditions were achieved using buffer containing 150 mM KH₂PO₄ (pH 7.5), 150 mM NaCl, 10 mM MgCl₂. To assess inhibitor-bound target protein (Set8), 20 μL/well (triplicate) reactions are set up into a Low 96-well Clear Multiplate PCR Plate (Bio-Rad). […] Sypro Orange™ at 5× (diluted in the above binding buffer from a stock concentration of 5000×) then added into the enzyme-peptide mixtures. The plate was covered with Microseal ‘B’ Film (Bio-Rad) and was equilibrated at 25° C. for 5 min. Experiments were conducted on a BioRad C1000 Thermal Cycler with CFX96 Real Time system. Heating was conducted using gradients from 25 to 95° C. (increasing 1° C. per minute).

In the case of `C[C@@H](O)[C@H](N)C(=O)N[C@@H](Cc1c[nH]cn1)C(=O)N[C@@H](Cc1c[nH]cn1)C(=O)N[C@@H](Cc1c[nH]cn1)C(=O)N[C@@H](CCCCN)C(=O)N[C@@H](Cc1c[nH]cn1)C(=O)N1CCC[C@H]1C(=O)NCC(=O)NCC(=O)NCCCCCC(=O)NCC(=O)N[C@@H](CCCNC(=N)N)C(=O)N[C@@H](CCCCN)C(=O)N[C@@H](CCCCN)C(=O)N[C@@H](CCCNC(=N)N)C(=O)N[C@@H](CCCNC(=N)N)C(=O)N[C@@H](CCC(N)=O)C(=O)N[C@@H](CCCNC(=N)N)C(=O)N[C@@H](CCCNC(=N)N)C(=O)N[C@@H](CCCNC(=N)N)C(=O)N1CCC[C@H]1C(=O)N1CCC[C@H]1C(=O)N[C@@H](CCC(N)=O)C(=O)O` [KBL9-TAT, THHHKHPGG{6-aminohexanoic acid}GRKKRRQRRRPPQ] (H-THHHKHPGG[Ahx]GRKKRRQRRRPPQ-OH; N-terminus and C-terminus assumed), the IC50 (HCT 116 cells [1]; 24 hr dose response 1 nM to 20 nM, tested in HCT 116 and HEK 293 cells, read-out: IC50 for loss of cell viability) is reported as roughly 20 nM, the “loss of cell viability” value (HCT 116 cells [1]; HCT 116, 10 μM peptide, 24 hr, DMSO control = 100% viable) is reported as “up to 80%” and the “concentration after which H4K20 histone lysine methylation decreased” value [2] is reported as “at least 2 nM”. The “increase of sensitivity to doxorubicin treatment” value (HCT 116 cells [3]) was 360% and the BrdU incorporation (HCT 116 cells [4]) was “decreased BrdU incorporation in a dose-responsive manner”.

With THHHKHPGG [KBL9] the “inhibition of Set8 methyltransferase activity (H4K20 methylation) in dose-response” value (Set8; 50 nM Set8, 10 μM H4K20 peptide, 10 μM SAM) was “complete inhibition” and the “in vitro specificity among panel of related methyltransferases” value (Set8; panel of recombinant Set6, Set7, Set8 enzymes) was “in vitro specificity towards the inhibition of Set8 activity”.

B1: KBL9-TAT (peptide)
peptide: THHHKHPGG[Ahx]GRKKRRQRRRPPQ
B1 was tested, and the “IC50, loss of cell viability (resazurin, 24 hr; HCT 116 and HEK 293 cells)” value [5] was roughly 20 nM.

B2: fluorescein-labeled KBL9 (peptide)
peptide: THHHKHPGG
modifications: also: fluorescein label, position not given here
notes: also called EP18
In the case of B2, the Kd [6] is reported as 33.5 nM and 33.3 nM.

B3: KBL10 (peptide)
peptide: SHHHKHPHG
notes: also called EP 24
In the case of B3, the “Tm (° C.)” value [7] is reported as 82.8 ° C.

B4: KBL6 (peptide)
peptide: THHHKHPGA
notes: also called EP 22
In the case of B4, the “Tm (° C.)” value [7] is reported as 84.8 ° C.

B5: KBL15 (peptide)
peptide: THHHKHPHQ
notes: also called EP 8
With B5 the “Tm (° C.)” value [7] was 75.5 ° C.

B6: KBL13 (peptide)
peptide: THHHKHPEQ
notes: also called EP 7
In the case of B6, the “Tm (° C.)” value [7] is reported as 77.6 ° C.

B7: KBL4 (peptide)
peptide: THHHKHPGR
notes: also called EP 21
B7 was tested, and the “Tm (° C.)” value [7] was 85 ° C.

B8: KBL8 (peptide)
peptide: THHHKHPGQ
notes: also called EP 19
For B8, the “Tm (° C.)” value [7] was 84.5 ° C.

B9: KBL2 (peptide)
peptide: THHHKHPHK
notes: also called EP 6
With B9 the “Tm (° C.)” value [7] was 85.8 ° C.

B10: KBL9 (peptide)
peptide: THHHKHPGG
notes: also called EP 18; EP18
For B10, the “Tm (° C.)” value [7] was 83.5 ° C.

B11: KBL3 (peptide)
peptide: THHH[Nle]HPGG
notes: also called EP 43
With B11 the “Tm (° C.)” value [7] was 85.6 ° C.

B12: KBL11 (peptide)
peptide: THHH[Nle]HPGE
notes: also called EP 48
With B12 the “Tm (° C.)” value [7] was 78.5 ° C.

B13: KBL1 (peptide)
peptide: THHH[Nle]HPHQ
notes: also called EP 33
With B13 the “Tm (° C.)” value [7] was 86.5 ° C.

B14: KBL14 (peptide)
peptide: THHH[Nle]HPEQ
notes: also called EP 32
With B14 the “Tm (° C.)” value [7] was 81.5 ° C.

B15: KBL12 (peptide)
peptide: SHHH[Nle]HPHG
notes: also called EP 49
For B15, the “Tm (° C.)” value [7] was 78.3 ° C.

B16: KBL7 (peptide)
peptide: SHHH[Nle]HPGT
notes: also called EP 45
In the case of B16, the “Tm (° C.)” value [7] is reported as 84.8 ° C.

B17: KBL5 (peptide)
peptide: THHH[Nle]HPGA
notes: also called EP 47
For B17, the “Tm (° C.)” value [7] was 85 ° C.
